For one molecule, Kd results are on record in article PMC9135708.

In the assay the target is anti-PfTRAP mAb AKBR-7 (mouse). The assay is described as follows: BLI; Octet QKe; antibodies in culture supernatants immobilized on anti-Mouse IgG Fc Capture biosensors; antigen serially diluted (1–1000 nM) in 10x Kinetics Buffer (PBS + 0.1% BSA, 0.02% Tween-20, 0.05% sodium azide); fit to the 1:1 binding model. (In BLI a coated tip is dipped into the sample, and binding shifts an interference pattern.)

B1: Plasmodium falciparum TRAP ectodomain (PfTRAP) (domain or fragment)
chain: RDVQNNIVDEIKYSEEVCNDQVDLYLLMDCSGSIRRHNWVNHAVPLAMKLIQQLNLNDNAIHLYVNVFSNNAKEIIRLHSDASKNKEKALIIIRSLLSTNLPYGRTNLTDALLQVRKHLNDRINRENANQLVVILTDGIPDSIQDSLKESRKLSDRGVKIAVFGIGQGINVAFNRFLVGCHPSDGKCNLYADSAWENVKNVIGPFMKAVCVEVEKTASCGVWDEWSPCSVTCGKGTRSRKREILHEGCTSEIQEQCEEERCPPKWEPLDVPDEPEDDQPRPRGDNSSVQKPEENIIDNNPQEPSPNPEEGKDENPNGFDLDENPENPPNPDIPEQKPNIPEDSEKEVPSDVPKNPEDDREENFDIPKKPENKHDNQNNLPNDKSDRNIPYSPLPPKVLDNERKQSDPQSQDNNGNRHVPNSEDRETRPHGRNNENRSYNRKYNDTPKHPEREEHEKPDNNKKKGESDNKYK
modifications: site-specific biotinylation using BirA ligase, when required
Take B1: the equilibrium dissociation constant (Kd) (in general, the concentration at which binding is half-saturated) is 0.15 nM.
